Results on twelve molecules are retold here after patent publication US11965039B2, “Compstatin analogues and their medical uses” (priority 2018, dated 2024).

B1: Compound 24 (peptide)
peptide: Ac-ICIWQDWGEHRCTEGE-NH2
modifications: disulfide 2-12
SMILES: CC[C@H](C)[C@H](NC(C)=O)C(=O)N[C@H]1CSSC[C@@H](C(=O)N[C@H](C(=O)N[C@@H](CCC(=O)O)C(=O)NCC(=O)N[C@@H](CCC(=O)O)C(N)=O)[C@@H](C)O)NC(=O)[C@H](CCCNC(=N)N)NC(=O)[C@H](Cc2c[nH]cn2)NC(=O)[C@H](CCC(=O)O)NC(=O)CNC(=O)[C@H](Cc2c[nH]c3ccccc23)NC(=O)[C@H](CC(=O)O)NC(=O)[C@H](CCC(N)=O)NC(=O)[C@H](Cc2c[nH]c3ccccc23)NC(=O)[C@H]([C@@H](C)CC)NC1=O
notes: also called Comp No 24
B2: Compound 48 (peptide)
peptide: H-[dY]ICI[Trp(1-Me)]QDW[Sar]AHRC[NMeI]-NH2
modifications: disulfide 3-13
SMILES: CC[C@H](C)[C@H](NC(=O)[C@H](N)Cc1ccc(O)cc1)C(=O)N[C@H]1CSSC[C@@H](C(=O)N(C)[C@H](C(N)=O)[C@@H](C)CC)NC(=O)[C@H](CCCNC(=N)N)NC(=O)[C@H](Cc2c[nH]cn2)NC(=O)[C@H](C)NC(=O)CN(C)C(=O)[C@H](Cc2c[nH]c3ccccc23)NC(=O)[C@H](CC(=O)O)NC(=O)[C@H](CCC(N)=O)NC(=O)[C@H](Cc2cn(C)c3ccccc23)NC(=O)[C@H]([C@@H](C)CC)NC1=O
B3: Compound 28 (peptide)
peptide: Ac-EGSAICIWQDWGEHRC[Sar]E-NH2
modifications: disulfide 6-16
SMILES: CC[C@H](C)[C@H](NC(=O)[C@H](C)NC(=O)[C@H](CO)NC(=O)CNC(=O)[C@H](CCC(=O)O)NC(C)=O)C(=O)N[C@H]1CSSC[C@@H](C(=O)N(C)CC(=O)N[C@@H](CCC(=O)O)C(N)=O)NC(=O)[C@H](CCCNC(=N)N)NC(=O)[C@H](Cc2c[nH]cn2)NC(=O)[C@H](CCC(=O)O)NC(=O)CNC(=O)[C@H](Cc2c[nH]c3ccccc23)NC(=O)[C@H](CC(=O)O)NC(=O)[C@H](CCC(N)=O)NC(=O)[C@H](Cc2c[nH]c3ccccc23)NC(=O)[C@H]([C@@H](C)CC)NC1=O
B4: Compound 20 (peptide)
peptide: Ac-ICIWQDWGEHSCT-NH2
modifications: disulfide 2-12
SMILES: CC[C@H](C)[C@H](NC(C)=O)C(=O)N[C@H]1CSSC[C@@H](C(=O)N[C@H](C(N)=O)[C@@H](C)O)NC(=O)[C@H](CO)NC(=O)[C@H](Cc2c[nH]cn2)NC(=O)[C@H](CCC(=O)O)NC(=O)CNC(=O)[C@H](Cc2c[nH]c3ccccc23)NC(=O)[C@H](CC(=O)O)NC(=O)[C@H](CCC(N)=O)NC(=O)[C@H](Cc2c[nH]c3ccccc23)NC(=O)[C@H]([C@@H](C)CC)NC1=O
B5: Compound 21 (peptide)
peptide: Ac-ICIWQDWGEHRCS-NH2
modifications: disulfide 2-12
SMILES: CC[C@H](C)[C@H](NC(C)=O)C(=O)N[C@H]1CSSC[C@@H](C(=O)N[C@@H](CO)C(N)=O)NC(=O)[C@H](CCCNC(=N)N)NC(=O)[C@H](Cc2c[nH]cn2)NC(=O)[C@H](CCC(=O)O)NC(=O)CNC(=O)[C@H](Cc2c[nH]c3ccccc23)NC(=O)[C@H](CC(=O)O)NC(=O)[C@H](CCC(N)=O)NC(=O)[C@H](Cc2c[nH]c3ccccc23)NC(=O)[C@H]([C@@H](C)CC)NC1=O
B6: Compound 15 (peptide)
peptide: Ac-ICIWQDWGEHRCTGAES-NH2
modifications: disulfide 2-12
SMILES: CC[C@H](C)[C@H](NC(C)=O)C(=O)N[C@H]1CSSC[C@@H](C(=O)N[C@H](C(=O)NCC(=O)N[C@@H](C)C(=O)N[C@@H](CCC(=O)O)C(=O)N[C@@H](CO)C(N)=O)[C@@H](C)O)NC(=O)[C@H](CCCNC(=N)N)NC(=O)[C@H](Cc2c[nH]cn2)NC(=O)[C@H](CCC(=O)O)NC(=O)CNC(=O)[C@H](Cc2c[nH]c3ccccc23)NC(=O)[C@H](CC(=O)O)NC(=O)[C@H](CCC(N)=O)NC(=O)[C@H](Cc2c[nH]c3ccccc23)NC(=O)[C@H]([C@@H](C)CC)NC1=O
B7: Compound G (peptide)
peptide: Ac-ICVWQDWGEHRCS-NH2
modifications: disulfide 2-12
SMILES: CC[C@H](C)[C@H](NC(C)=O)C(=O)N[C@H]1CSSC[C@@H](C(=O)N[C@@H](CO)C(N)=O)NC(=O)[C@H](CCCNC(=N)N)NC(=O)[C@H](Cc2c[nH]cn2)NC(=O)[C@H](CCC(=O)O)NC(=O)CNC(=O)[C@H](Cc2c[nH]c3ccccc23)NC(=O)[C@H](CC(=O)O)NC(=O)[C@H](CCC(N)=O)NC(=O)[C@H](Cc2c[nH]c3ccccc23)NC(=O)[C@H](C(C)C)NC1=O
B8: Compound A (peptide)
peptide: Ac-ICVWQDWGEHRCT-NH2
modifications: disulfide 2-12
SMILES: CC[C@H](C)[C@H](NC(C)=O)C(=O)N[C@H]1CSSC[C@@H](C(=O)N[C@H](C(N)=O)[C@@H](C)O)NC(=O)[C@H](CCCNC(=N)N)NC(=O)[C@H](Cc2c[nH]cn2)NC(=O)[C@H](CCC(=O)O)NC(=O)CNC(=O)[C@H](Cc2c[nH]c3ccccc23)NC(=O)[C@H](CC(=O)O)NC(=O)[C@H](CCC(N)=O)NC(=O)[C@H](Cc2c[nH]c3ccccc23)NC(=O)[C@H](C(C)C)NC1=O
B9: Compound D (peptide)
peptide: Ac-ICVWQDWGEHRCTGAES-NH2
modifications: disulfide 2-12
SMILES: CC[C@H](C)[C@H](NC(C)=O)C(=O)N[C@H]1CSSC[C@@H](C(=O)N[C@H](C(=O)NCC(=O)N[C@@H](C)C(=O)N[C@@H](CCC(=O)O)C(=O)N[C@@H](CO)C(N)=O)[C@@H](C)O)NC(=O)[C@H](CCCNC(=N)N)NC(=O)[C@H](Cc2c[nH]cn2)NC(=O)[C@H](CCC(=O)O)NC(=O)CNC(=O)[C@H](Cc2c[nH]c3ccccc23)NC(=O)[C@H](CC(=O)O)NC(=O)[C@H](CCC(N)=O)NC(=O)[C@H](Cc2c[nH]c3ccccc23)NC(=O)[C@H](C(C)C)NC1=O
B10: Ac-IC(1)XWQDWGEHRC(1)T-NH2 with Norleucine at position 3 (peptide)
peptide: Ac-IC[Nle]WQDWGEHRCT-NH2
modifications: disulfide 2-12
SMILES: CCCC[C@@H]1NC(=O)[C@@H](NC(=O)[C@@H](NC(C)=O)[C@@H](C)CC)CSSC[C@@H](C(=O)N[C@H](C(N)=O)[C@@H](C)O)NC(=O)[C@H](CCCNC(=N)N)NC(=O)[C@H](Cc2c[nH]cn2)NC(=O)[C@H](CCC(=O)O)NC(=O)CNC(=O)[C@H](Cc2c[nH]c3ccccc23)NC(=O)[C@H](CC(=O)O)NC(=O)[C@H](CCC(N)=O)NC(=O)[C@H](Cc2c[nH]c3ccccc23)NC1=O
B11: Ac-IC(1)XWQDWGEHRC(1)T-NH2 with Norvaline at position 3 (peptide)
peptide: Ac-IC[Nva]WQDWGEHRCT-NH2
modifications: disulfide 2-12
SMILES: CCC[C@@H]1NC(=O)[C@@H](NC(=O)[C@@H](NC(C)=O)[C@@H](C)CC)CSSC[C@@H](C(=O)N[C@H](C(N)=O)[C@@H](C)O)NC(=O)[C@H](CCCNC(=N)N)NC(=O)[C@H](Cc2c[nH]cn2)NC(=O)[C@H](CCC(=O)O)NC(=O)CNC(=O)[C@H](Cc2c[nH]c3ccccc23)NC(=O)[C@H](CC(=O)O)NC(=O)[C@H](CCC(N)=O)NC(=O)[C@H](Cc2c[nH]c3ccccc23)NC1=O

Positions of bridges follow the written chain, without caps; N, C: chain ends. Non-standard residues stand in square brackets, D forms with d. Trp(1-Me) = Cn1cc(C[C@H](N)C(=O)O)c2ccccc21; NMeI = CC[C@H](C)[C@H](NC)C(=O)O; β3hI = CC[C@H](C)[C@H](N)CC(=O)O; Nle = CCCC[C@H](N)C(=O)O; Nva = CCC[C@H](N)C(=O)O; Sar = CNCC(=O)O

T1 sequence (P01024 23-1663 limits assumed): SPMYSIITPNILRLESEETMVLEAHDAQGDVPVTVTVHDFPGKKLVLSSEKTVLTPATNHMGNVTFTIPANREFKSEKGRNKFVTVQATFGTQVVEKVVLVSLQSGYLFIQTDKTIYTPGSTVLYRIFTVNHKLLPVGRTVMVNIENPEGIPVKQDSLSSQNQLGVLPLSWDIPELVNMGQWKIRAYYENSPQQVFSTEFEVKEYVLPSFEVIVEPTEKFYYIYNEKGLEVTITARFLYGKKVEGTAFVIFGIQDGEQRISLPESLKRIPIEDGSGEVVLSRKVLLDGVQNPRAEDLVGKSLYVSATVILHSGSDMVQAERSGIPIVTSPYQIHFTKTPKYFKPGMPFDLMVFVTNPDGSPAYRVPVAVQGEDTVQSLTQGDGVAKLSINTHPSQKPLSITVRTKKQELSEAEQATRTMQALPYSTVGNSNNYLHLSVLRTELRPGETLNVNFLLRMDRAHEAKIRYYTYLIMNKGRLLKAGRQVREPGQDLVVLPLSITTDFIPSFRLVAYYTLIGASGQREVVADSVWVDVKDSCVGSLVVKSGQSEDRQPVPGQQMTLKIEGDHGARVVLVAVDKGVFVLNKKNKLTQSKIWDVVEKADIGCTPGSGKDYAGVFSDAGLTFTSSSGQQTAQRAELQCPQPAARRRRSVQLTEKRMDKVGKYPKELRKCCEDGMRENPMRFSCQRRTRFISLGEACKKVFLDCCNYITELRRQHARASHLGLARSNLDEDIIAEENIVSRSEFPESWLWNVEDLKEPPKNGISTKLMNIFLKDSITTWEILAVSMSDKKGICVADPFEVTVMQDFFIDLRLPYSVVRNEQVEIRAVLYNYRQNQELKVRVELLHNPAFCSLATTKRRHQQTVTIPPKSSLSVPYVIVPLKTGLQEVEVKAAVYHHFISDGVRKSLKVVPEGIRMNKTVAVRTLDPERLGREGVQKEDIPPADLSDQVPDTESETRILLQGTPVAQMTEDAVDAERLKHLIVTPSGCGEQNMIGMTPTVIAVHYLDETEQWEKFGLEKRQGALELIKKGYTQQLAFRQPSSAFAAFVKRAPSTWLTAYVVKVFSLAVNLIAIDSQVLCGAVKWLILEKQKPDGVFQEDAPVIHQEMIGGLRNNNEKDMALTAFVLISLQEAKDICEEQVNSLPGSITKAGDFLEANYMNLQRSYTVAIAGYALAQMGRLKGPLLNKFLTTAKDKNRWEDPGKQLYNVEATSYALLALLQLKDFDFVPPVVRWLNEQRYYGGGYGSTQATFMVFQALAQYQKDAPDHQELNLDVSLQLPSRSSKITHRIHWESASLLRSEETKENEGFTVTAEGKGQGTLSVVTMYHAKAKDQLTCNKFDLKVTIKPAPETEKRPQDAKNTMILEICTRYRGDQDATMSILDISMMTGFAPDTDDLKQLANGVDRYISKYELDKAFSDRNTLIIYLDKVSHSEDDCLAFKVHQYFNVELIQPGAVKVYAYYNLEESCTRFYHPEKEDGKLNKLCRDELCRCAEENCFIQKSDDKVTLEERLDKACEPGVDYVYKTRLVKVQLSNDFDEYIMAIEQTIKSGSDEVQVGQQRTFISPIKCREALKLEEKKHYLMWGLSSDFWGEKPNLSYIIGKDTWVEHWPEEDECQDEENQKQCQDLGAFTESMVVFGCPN

One experiment concerns the target T1, Human C3 (Complement tech cat #A113c) (human, UniProt P01024 23-1663). In words: cell-based or functional assay.
For B1, the “inhibition of hemolysis IC50” value is below 100 nM.
For the molecule B2, the “inhibition of hemolysis IC50” value was below 100 nM.
Same read-out and setting: the value for B3 was below 100 nM; that for B4 was below 100 nM; that for B5 was below 100 nM.
As to B6, the “inhibition of hemolysis IC50” value is below 100 nM.

The next experiment deals with T1, Human C3 (Complement tech cat #A113c). In words: cell-based or functional assay. This is another data set of the same source.
Turning to B1, the “CP hemolysis IC50” value is 90 nM.
As to B3, the “CP hemolysis IC50” value worked out at 88 nM.
For the molecule B4, the “CP hemolysis IC50” value amounted to 59 nM.
On the same count and under the same terms, the value for B7 was 180 nM; that for B5 was 77 nM.
The same measure, in the same setting: as for B8, the figure is 350 nM.
Same read-out and setting: as for B6, the figure is 47 nM; as for B9, 210 nM.

The next experiment has the same target. In words: cell-based or functional assay. The source holds these as a separate data set.
In the case of Ac-IC[β3hI]WQDWGEHRCT-NH2 (disulfide 2-12) [Ac-IC(1)XWQDWGEHRC(1)T-NH2 with Beta-Homo-Isoleucine at position 3], the “IC50, CP hemolysis” value is above 10000 nM.
As to B10, the “IC50, CP hemolysis” value came out at 480 nM.
The same measure, in the same setting: the value for B8 was 350 nM; that for B11 was above 1000 nM.

The next experiment shares this target. In words: SPR (Biacore T200), human C3 immobilised, peptide injected, 1:1 fit. A digest of the protocol: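 Human C3 amine-coupled on CM5 chips to about 3000 RU. Multi-cycle runs on Biacore T200 at 25° C: peptides at 6-8 rising concentrations, 60-120 s at 30 µL/min in 10 mM Tris pH 7.4, 150 mM NaCl, 0.05% Tween20, dissociation up to 10 min; 3 M MgCl2 regeneration. Kd derived.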
(In general: In SPR one partner is held on a chip, and binding of the other changes the refractive index at the surface.)
A word on the Kd: it is the equilibrium constant for the complex coming apart. Take B1: binding was put at a Kd of 28 nM.
Same read-out and setting: as for B2, the figure is 0.12 nM.
Same read-out and setting: as for B3, the figure is 44 nM.
On the same count and under the same terms, as for B4, the figure is 37 nM; as for B5, 16 nM; as for B6, 14 nM.

Another experiment shares this target. The description is as above. The source holds these as a separate data set. As for the experimental part:
Surface plasmon resonance (SPR) was used to characterize peptides with respect to their binding affinity (Kd) for C3. Human C3 (Complement tech cat #A113c) was immobilised on individual flow cells of CM5 sensor chips (GE Healthcare) using standard amine coupling to a density of approximately 3000 resonance units (RU) in a buffer consisting of 10 mM phosphate pH 7.4, 150 mM NaCl, 0.05% Tween20.
For interaction experiments a multi-cycle experiment approach was used and performed using a BiacoreT200™ instrument (GE Healthcare) at 25° C. Peptides were injected in increasing concentration series (6-8 different concentrations) for 60-120 sat a flow rate of 30 µL/min in a buffer consisting of 10 mM Tris buffer at pH 7.4, with 150 mM NaCl and 0.05% Tween20. This was followed by a dissociation period for up to 10 min. The C3 surface was regenerated between runs by a 45 s injection of 3 M MgCl_2.
Turning to B2, the Kd is 0.12 nM. In other words, the sub-nanomolar range.
On the same count and under the same terms, as for B7, the figure is 160 nM.
Same read-out and setting: the value for B5 was 16 nM.
Molecule B8 yielded a Kd of 130 nM.
Molecule B6 yielded a dissociation constant Kd of 14 nM.
On the same count and under the same terms, the value for B9 was 230 nM.
